Assay [1] addresses mouse CD4 on splenocytes / CD4+ T cells (mouse (endogenous in splenocytes)) (UniProt P06332).
The target of a further assay is T1, recombinant mouse CD4 (Mus musculus, strain , UniProt P06332).
T1 construct: CD4, mouse, recombinant; the supplementary information may tell source and limits; also called immobilized CD4 antigen; soluble murine CD4
The experiment in a line: ELISA; saturation binding curves on immobilized recombinant mouse CD4; half-maximal binding (EC50), apparent affinity. The following applies: both partners purified. Background: In an ELISA, binding on a coated surface is turned into a signal by an enzyme label.

A further assay has as its target DFO-GK1.5 FR cDb (rat). The experiment in a line: SEC; DFO-conjugated cDbs (inter-chain disulfide broken) compared with unconjugated cDbs; single peaks.
The target of the next assay is T2, BSA (Bos taurus, UniProt P02769).
T2 construct: serum albumin, printed only as BSA; also called control (BSA)
The experiment in a line: ELISA; control: BSA instead of CD4; data not shown. The following applies: both partners purified.

The target in a further assay is DFO-GK1.5 N80D cDb (rat). The experiment in a line: SEC; DFO-conjugated cDbs (inter-chain disulfide broken) compared with unconjugated cDbs; single peaks. A general note: Size exclusion chromatography separates by hydrodynamic size, large species first.
In assay [2] the target is mouse CD4 on splenocytes / CD4+ T cells (mouse (endogenous in splenocytes)) (UniProt P06332). This is another data set of the same source.
Chain of mouse CD4 on splenocytes / CD4+ T cells (mouse (endogenous in splenocytes)) (P06332 27-457): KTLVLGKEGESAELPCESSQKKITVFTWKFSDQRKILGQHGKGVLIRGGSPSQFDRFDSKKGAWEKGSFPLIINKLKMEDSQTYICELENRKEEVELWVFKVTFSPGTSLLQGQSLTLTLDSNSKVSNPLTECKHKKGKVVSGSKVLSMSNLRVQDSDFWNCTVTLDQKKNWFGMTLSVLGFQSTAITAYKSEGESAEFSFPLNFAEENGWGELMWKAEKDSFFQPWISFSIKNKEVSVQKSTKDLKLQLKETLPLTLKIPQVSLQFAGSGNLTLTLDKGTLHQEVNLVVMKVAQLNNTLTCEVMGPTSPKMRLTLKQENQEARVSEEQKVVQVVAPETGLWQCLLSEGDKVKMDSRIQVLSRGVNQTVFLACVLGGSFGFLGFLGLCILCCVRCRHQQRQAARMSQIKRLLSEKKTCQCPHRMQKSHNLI

T1 sequence (P06332 27-457): as above
T2 sequence (P02769 25-607): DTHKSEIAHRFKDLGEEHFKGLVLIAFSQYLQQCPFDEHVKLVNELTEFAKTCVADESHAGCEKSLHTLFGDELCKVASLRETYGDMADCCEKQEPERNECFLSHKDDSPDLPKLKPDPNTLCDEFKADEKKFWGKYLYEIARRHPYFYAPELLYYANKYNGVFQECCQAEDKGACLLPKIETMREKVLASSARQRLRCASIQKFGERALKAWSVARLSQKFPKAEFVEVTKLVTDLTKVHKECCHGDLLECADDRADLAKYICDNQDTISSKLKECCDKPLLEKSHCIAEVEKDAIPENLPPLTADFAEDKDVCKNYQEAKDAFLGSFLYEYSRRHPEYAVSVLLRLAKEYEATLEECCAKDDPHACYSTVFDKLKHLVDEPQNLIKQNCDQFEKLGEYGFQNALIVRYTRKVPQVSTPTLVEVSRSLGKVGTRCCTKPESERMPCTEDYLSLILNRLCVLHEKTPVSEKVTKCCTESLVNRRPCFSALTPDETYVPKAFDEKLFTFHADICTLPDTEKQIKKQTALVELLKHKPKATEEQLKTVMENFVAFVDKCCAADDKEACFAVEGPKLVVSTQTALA

B1: GK1.5 FR cDb (scFv, V domains shown)
VH: EVKLQESGGGLVQPGRSLKLSCAASGFNIRRTYMHWVRQAPGKGLEWIGRIDPANGNTIYGEKFKSKFTISRDNAQNTLYLQMSKLGSEDTAIYYCAIGVQYLDYWGQGVMVTVSS
VL: DIVLTQSPAMAMSPGERITISCRATESVSTLIHWYQQKPGQQPKLLIYLTSHLDSGVPARFSGSGSGTDFTLTIDPVEANDTATYYCQQTWNDPWTFGGGTKLELK
notes: as the VH of m1: CDRs of GK1.5 on the VH framework of YTS169; five amino acid linker, printed as G4S (VH-G4S-VL-Cys-His); C-terminal cysteine residue for site-specific conjugation, before the His6 tag; cys-diabody: covalent homodimer of the scFv; parent of m1; also called CDR-grafted cys-diabody; glycosylated GK1.5 FR cDb; source: production and purification told in the supplementary information
The stoichiometry N is the number of molecules, sites or subunits per partner or assembly. In assay [1], B1 returned an ex vivo biodistribution 22 h p.i. of ^89Zr-GK1.5 FR cDb (2 µg) in C57BL/6J mice: uptake in spleen of 20.7 %ID/g; an ex vivo biodistribution 22 h p.i. of ^89Zr-GK1.5 FR cDb: uptake in axillary, brachial lymph nodes of 10.5 %ID/g; an ex vivo biodistribution 22 h p.i. of ^89Zr-GK1.5 FR cDb: uptake in cervical lymph nodes of 16.7 %ID/g; an ex vivo biodistribution 22 h p.i. of ^89Zr-GK1.5 FR cDb: uptake in inguinal lymph nodes of 13 %ID/g. In addition, the binding result with recombinant mouse CD4 was “binds”. The molecule further displayed a stoichiometry N with DFO-GK1.5 FR cDb (rat) of 2.

B2: GK1.5 N80D cDb (scFv, V domains shown)
VH: EVKLQESGGGLVQPGRSLKLSCAASGFNIRRTYMHWVRQAPGKGLEWIGRIDPANGNTIYGEKFKSKFTISRDNAQNTLYLQMSKLGSEDTAIYYCAIGVQYLDYWGQGVMVTVSS
VL: DIVLTQSPAMAMSPGERITISCRATESVSTLIHWYQQKPGQQPKLLIYLTSHLDSGVPARFSGSGSGTDFTLTIDPVEADDTATYYCQQTWNDPWTFGGGTKLELK
notes: VH: CDRs of GK1.5 (contact definition) on the VH framework of YTS169; five amino acid linker, printed as G4S (VH-G4S-VL-Cys-His); VL of GK1.5 FR cDb (CDRs of GK1.5 on the VL framework of YTS169) with N80D (L81 in Kabat numbering); C-terminal cysteine residue for site-specific conjugation, before the His6 tag; cys-diabody: covalent homodimer of the scFv (MW 52.2 kDa), inter-chain disulfide between …
The term EC50 denotes the concentration at which the effect is half-maximal. Turning to B2, the binding result in the assay with BSA is on record as “no binding”. Further, in assay [1], the ex vivo biodistribution 22 h p.i. of ^89Zr-GK1.5 N80D cDb (2 µg) in C57BL/6J mice: uptake in spleen is 48.5 %ID/g; the ex vivo biodistribution 22 h p.i. of ^89Zr-GK1.5 N80D cDb, blocked by co-injection of 60 µg (3 mg/kg) non-radioactive GK1.5 N80D cDb: uptake in spleen was 9.7 %ID/g; the ex vivo biodistribution 22 h p.i. of ^89Zr-GK1.5 N80D cDb, blocked by co-injection of non-radioactive GK1.5 N80D cDb: uptake in axillary, brachial lymph nodes was determined as 16.6 %ID/g; the ex vivo biodistribution 22 h p.i. of ^89Zr-GK1.5 N80D cDb, blocked by co-injection of non-radioactive GK1.5 N80D cDb: uptake in cervical lymph nodes was determined as 20 %ID/g. Also, in assay [1], the ex vivo biodistribution 22 h p.i. of ^89Zr-GK1.5 N80D cDb, blocked by co-injection of non-radioactive GK1.5 N80D cDb: uptake in inguinal lymph nodes was found to be 18.3 %ID/g; the ex vivo biodistribution 22 h p.i. of ^89Zr-GK1.5 N80D cDb: uptake in axillary, brachial lymph nodes was determined as 43.5 %ID/g; the ex vivo biodistribution 22 h p.i. of ^89Zr-GK1.5 N80D cDb: uptake in cervical lymph nodes is 66.2 %ID/g; the ex vivo biodistribution 22 h p.i. of ^89Zr-GK1.5 N80D cDb: uptake in inguinal lymph nodes was determined as 44.3 %ID/g. Further, the EC50 with recombinant mouse CD4 is 3 nM. The same molecule had a stoichiometry N with DFO-GK1.5 N80D cDb (rat) of 2. The ex vivo biodistribution 22 h p.i. of ^89Zr-GK1.5 N80D cDb, blocked by co-injection of non-radioactive GK1.5 N80D cDb: uptake in spleen (value of the text, differs from Table 2) in assay [2] is 8.1 %ID/g.

B3: Parental anti-mouse CD4 antibody GK1.5 (rat IgG2b,k) (antibody, V domains shown)
VH: EVQLQQSGAELGKPGTSVKLSCKVSDYNIRRTYMHWVNQRPGKGLEWIGRIDPANGNTIYGEKFKSKATLTADTSSNTAYMQLSQLKSDDTAFYYCAIGVQYLDYWGQGVMVTVSS
VL: DIVLTQSPASLAVSPGERVTISCRATESVSTLIHWFQQRPGQQPKLLIYLTSHLDSGVPARFSGSGSGTDFTLTIDPVEADDTATYYCQQTWNDPWTFGGGTKLELK
notes: VH of hybridoma GK1.5; constant region of rat IgG2b heavy chain; VL of hybridoma GK1.5; constant region of rat kappa light chain; rat IgG2b, kappa; also called GK1.5 IgG; parental full-length GK1.5 IgG; source: bought: BioLegend Cat# 100401; copies: 2 + 2
For the molecule B3, the EC50 with recombinant mouse CD4 was determined as 2.25 nM.

Values taken from PMC12628392, “Reengineered Anti-CD4 Cys-diabody Variants for ^89Zr-immunoPET of CD4^+ T Cells in Immunocompetent Mice” (Molecular Imaging and Biology, 2025).
